This note sets out measurements from patent publication US20250134019A1, “TRIKETONE DIOXYGENASE VARIANTS FOR HERBICIDE TOLERANCE” (Monsanto Technology LLC, priority 2022, published 2025).

What all share (type): in vivo
The subject of assay [1] is transgenic cotton plants. The experiment in a line: Mesotrione treatment of cotton plants expressing TDO variants, crop injury. As to conditions: Under 80° F., R2 cotton sprayed at V3. How it is done:
Cotton is a crop of interest that is often exposed to high temperature growing conditions and thus, selected TDO variants were tested in cotton. Three TDO variants, D08, TDO_6, and TDO_8 were transformed into cotton (along with the Os.TDO control) using similar expression elements in single-cassette vectors or as part of multi-cassette vectors. R2 transgenic cotton plants were then screened for tolerance to mesotrione. Sixteen plants from two events each per construct were sprayed with two rates (2X and 8X) of mesotrione at V3 stage under normal (80° F.) and hot (100° F.) growing conditions. In addition, the effect of heat treatment on TDO accumulation in cotton plants were measured by ELISA. Cotton plants were planted and grown under normal greenhouse conditions (80° F. day/70° F. night) until V3 growth stage. Half of the plants were then moved to a higher temperature growth chamber (100° F. day/82° F. night) for the heat treatment, whereas the remaining half of the plants stayed in the same greenhouse (80° F. day/70° F. night). At day 3 after the plants were placed under different temperature conditions, leaf samples were collected for TDO protein measurement. The plants in 100° F. growth chamber and in 80° F. greenhouse were both sprayed with 2X mesotrione (210 g a.i./ha). Leaf samples were collected again 7 days after mesotrione treatment (DAT: Days After Treatment) for protein assay. Table 5 compares protein levels of the TDO variants in transgenic cotton plants grown under the two tested conditions. The protein levels for the TDO variants were measured at three time points for plants: 1) just before entering the high temperature treatment, 2) three days following placement into control (normal growth temperature) or high temperature (100° F.), and 3) 7 days after a 2X mesotrione spray.

For assay [2], the system named is transgenic soybean plants. The experiment in a line: Response of R0 soybean plants transformed with Round 2 TDO variants to mesotrione. As to conditions: same expression elements; Os.TDO control failed transformation in this experiment. The text has this:
The next set of experiments was focused on determining if the balance between improved enzyme stability could outweigh a reduction in activity observed at optimal temperatures in soybean plants. […] To test this hypothesis, the eight variants from Round 2 biochemical analysis described in the preceding paragraph were transformed into soybean through Agrobacterium-mediated transformation, along with three controls. One of the controls (TDO_9) was a variant from the high-throughput screens that had poor activity. Two other controls were the D08 variant and the Os.TDO. R0 transgenic soybean plants were sprayed with the mesotrione herbicide to screen for herbicide tolerance. […] These included the Os.TDO control, the D08 variant and one Round 2 variant. The plants were scored for percent injury as described in the previous examples.

The subject of assay [3] is transgenic soybean plants. The experiment in a line: Mesotrione injury of R0 transgenic soybean plants expressing TDO homologs. Conditions: promoter Constitutive 2, 3' UTR B; 210 g a.i./ha mesotrione at V3-V4, rated 7-14 days after treatment; mean of all tested events. How it is done:
Plant expression vectors comprising the selected TDO homologs under the control of one of two constitutive promoters were transformed into soybean via an Agrobacterium tumefaciens-mediated method. Following Agrobacterium transformation, R0 transgenic soybean plants containing a single copy of the transgene were identified through molecular characterization and segregation analysis. Transgenic and wild-type (control) plants were grown in 6-inch pots filled with BM7 soilless mix in a growth chamber under the conditions of 28° C./23° C. (light/dark) and a 16 hr light/8 hr dark photoperiod. Plants were fertilized with 15-5-15 liquid fertilizer at the V3-V4 growth stage and treated with 210 g a.i./ha mesotrione (1X=105 g a.i./ha; Callisto®, Syngenta in 1% crop oil). Plants were visually rated 7-14 days after treatment on a scale of 0% to 100%, with 0%=no injury and 100%=plant death, relative to the wild-type controls. The results summarized in Table 2 represent the mean of all tested events (10-15) for each construct.

Assay [4] has as its system transgenic soybean plants. Put plainly: Mesotrione tolerance assay of Os.TDO transgenic soybean events (Construct 32). Conditions: for injury rate: sprayed at V1, rated 13 days after treatment. The source says:
Mesotrione herbicide rate is expressed as grams active ingredient per hectare (g a.i./ha); 1X commercial rate=105 g a.i./ha. […] Plants at V1 growth stage were sprayed with mesotrione (in Callisto®, Syngenta in 1% crop oil) at 1X, 2X, 4X, 8X, and 16X of commercial rate (equivalent to 105, 210, 420, 840, and 1680 g a.i./ha, respectively). Crop injury ratings were taken 13 days after mesotrione treatment.
Os.TDO transgenic event-125 and wild-type control plants were sprayed with 2X of commercial rate of mesotrione (Callisto, 210 g a.i./ha), tembotrione (Laudis, 184 g a.i./ha) and sulcotrione (Sulcogan, 660 g a.i./ha). Each bar represents the mean of injury rating of 8 reps +/−SE. * indicates significant difference vs corresponding control at p<0.01.
The Os.TDO sequence was cloned into a set of binary vectors using standard cloning methods known in the art with its expression driven by different constitutive promoters and different 3′UTRs. Transgenic soybean plants comprising these constructs were developed using an Agrobacterium-mediated transformation system as described in Larue et al. (2020). The copy number of the transgene was determined via a Taqman assay and events with a single copy of the T-DNA insertion were selected for evaluation of mesotrione tolerance. Briefly, R2 and later generation homozygous lines of three soybean transgenic events derived from Construct 32 were selected for a mesotrione tolerance greenhouse assay. Construct 32 contained two expression cassettes between the T-DNA borders: one for expression of Os.TDO and the other for expression of a selectable marker. The Os.TDO cassette utilized the cauliflower mosaic virus (CaMV) 35S promotor and the 5′ UTR of HSP70 from petunia to drive expression of Os.TDO, followed by the 3′ UTR of the nopaline synthase (nos) gene from the T-DNA region of the Ti plasmid of Agrobacterium tumefaciens, which functions to direct polyadenylation of the mRNA. The selectable marker cassette conferring spectinomycin and streptomycin resistance comprises the promoter, intron, and leader sequences from the Arabidopsis thaliana actin 7 gene, the transit peptide region of Arabidopsis thaliana EPSPS, the coding region of the Tn7 adenylyltransferase (AAD (3″)) gene from E. coli, and the 3′ non-translated region from the Agrobacterium tumefaciens nopaline synthase gene.
Each plant was grown in a 3.5″ pot with soybean potting media in a growth chamber under conditions of 28° C./24° C. (light/dark) and a photoperiod of 16 hr light at 700 μE/8 hr dark, and fertilized with Peters general purpose fertilizer. Eight plants at V1 growth stage were sprayed with mesotrione (in Callisto®, Syngenta in 1% crop oil) at 1X, 2X, 4X, 8X, and 16X of commercial rate (equivalent to 105, 210, 420, 840, and 1680 g active ingredient/ha, respectively). Crop injury ratings were taken 13 days after mesotrione treatment.

B1: Os.TDO: TDO from Oryza sativa (HIS1), SEQ ID NO:2, polynucleotide codon optimized for dicot expression (protein, listed as Oryza sativa)
chain: MADESWRAPAIVQELAAAGVEEPPSRYLLREKDRSDVKLVAAELPEPLPVVDLSRLDGAEEATKLRVALQNWGFFLLTNHGVEASLMDSVMNLSREFFNQPIERKQKFSNLIDGKNFQIQGYGTDRVVTQDQILDWSDRLHLRVEPKEEQDLAFWPDHPESFRDVLNKYASGTKRIRDDIIQAMAKLLELDEDYFLDRLNEAPAFARFNYYPPCPRPDLVFGIRPHSDGTLLTILLVDKDVSGLQVQRDGKWSNVEATPHTLLINLGDTMEVMCNGIFRSPVHRVVTNAEKERISLAMLYSVNDEKDIEPAAGLLDENRPARYRKVSVEEFRAGIFGKFSRGERYIDSLRI
With B1, in assay [1], the “Crop Injury (%), 210 g/ha (2X) Mesotrione” value was found to be 0% and the “Crop Injury (%), 840 g/ha (8X) Mesotrione” value stood at 0%. For the same molecule, the “typical injury rating for R0 soybean” value in assay [2] is given as “high 20% to low 30%”. Also, the “% Injury” value in assay [3] is given as 12%. Moreover, in assay [4] (2X commercial rate sulcotrione (Sulcogan, 660 g a.i./ha), event-125), the tolerance to sulcotrione result is “provided tolerance”. In addition, the tolerance to tembotrione entry in assay [4] (2X commercial rate tembotrione (Laudis, 184 g a.i./ha), event-125) is on record as “provided tolerance”. Also, in assay [4] (mesotrione 16X (1680 g a.i./ha)), the injury rate entry is given as “below 15%”. Further, the injury rate entry in assay [4] (mesotrione at 8X or lower rate (1X=105 g a.i./ha), three transgenic events) is “lower than 10%”. The tolerance to mesotrione entry in assay [4] (up to 16X of commercial application rate (1X=105 g a.i./ha)) is recorded as “excellent tolerance”.
